B1: SOAT2 (parent)
chain: SLGKQKVFIIRKSLLDELMEVQHF
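Note: lentivirally expressed fusions sorted by FACS into six bins by GFP to DsRed ratio, PSI derived from sequencing read proportions per bin multiplied by bin number.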

Variants of B1 are the subject of this data set. Kind of data set: protein stability index of a GFP-peptide fusion (GPS, HEK-293T) (PSI 1-6); higher = more stable. Particulars: c terminus: a fixed tail appended.
For the variant SLGKQKVFIIRKSLLTELMEVQHF, the protein stability index was 2.14.

As to SLGKQKVFIIRKSLLCELMEVQHF, the protein stability index turned out to be 2.63.

On to SLGKQKVFIIRKSLLFELMEVQHF, for which the protein stability index worked out at 2.19.

As to SLGKQKVFIIRKSLLAELMEVQHF, the protein stability index was 1.7.

For TLGKQKVFIIRKSLLDELMEVQHF, the protein stability index worked out at 4.03.

With VLGKQKVFIIRKSLLDELMEVQHF, the protein stability index was 2.

Take CLGKQKVFIIRKSLLDELMEVQHF: the protein stability index was determined as 2.9.

Consider FLGKQKVFIIRKSLLDELMEVQHF, for which the protein stability index was found to be 1.92.

For the variant LLGKQKVFIIRKSLLDELMEVQHF, the protein stability index stood at 3.27.

With ELGKQKVFIIRKSLLDELMEVQHF, the protein stability index turned out to be 2.99.

In the case of HLGKQKVFIIRKSLLDELMEVQHF, the protein stability index turned out to be 2.

As to KLGKQKVFIIRKSLLDELMEVQHF, the protein stability index came out at 2.94.

In the case of SLGKQKVFIIRKSLLDELKEVQHF, the protein stability index came out at 2.89.

Consider SLGKQKVFIIRKSLLDELWEVQHF, for which the protein stability index worked out at 2.41.

For SLGKQKVFIIRKSLLDELHEVQHF, the protein stability index came out at 2.93.

For SLGKQKVFIIRKSLLDELSEVQHF, the protein stability index stood at 2.25.

SLGKQKVFIIRKSLLDELYEVQHF: the protein stability index amounted to 1.36.

SLGKQKVFIIRKSLLDELTEVQHF: the protein stability index was 1.74.

On to SLGKQKVFIIRKSLLDELEEVQHF, for which the protein stability index turned out to be 1.69.

For SLGKQKVFIIRKSLLDELFEVQHF, the protein stability index came to 3.18.

In the case of SLGKQKVFIIRKSLLDELCEVQHF, the protein stability index was 2.15.

As for SLGKQKVFIIRKSLLDELAEVQHF, the protein stability index amounted to 3.02.

On to SLGKQKVFIIRKSLLDELMEVQHA, for which the protein stability index stood at 1.8.

In the case of SLGKQKVFIIRKSLLDELMEVQHN, the protein stability index is 1.9.

SLGKQKVFIIRKSLLDELMEVQHE: the protein stability index was found to be 1.71.

For SLGKQKVFIIRKSLLDELMEVQHG, the protein stability index is 1.68.

Turning to SLGKQKVFIIRKSLLDELMEVQHS, the protein stability index amounted to 2.25.

SLGKQKVFIIRKSLLDELMEVQHD: the protein stability index is 2.65.

SLGKQKVFIIRKSLLDELMEVQHC: the protein stability index turned out to be 2.09.

With SLGKQKVFIIRKQLLDELMEVQHF, the protein stability index stood at 1.69.

Consider SLGKQKVFIIRKPLLDELMEVQHF, for which the protein stability index turned out to be 1.99.

Regarding SLGKQKVFIIRKTLLDELMEVQHF, the protein stability index is 2.4.

On to SLGKQKVFIIRKDLLDELMEVQHF, for which the protein stability index is 3.49.

Take SLGKQKVFIIRKHLLDELMEVQHF: the protein stability index amounted to 2.48.

As for SLGKQKVFIIRKLLLDELMEVQHF, the protein stability index stood at 2.24.

Take SLGKQKVFIIRKMLLDELMEVQHF: the protein stability index came to 2.22.

Take SLGKFKVFIIRKSLLDELMEVQHF: the protein stability index was found to be 3.55.

With SLGKMKVFIIRKSLLDELMEVQHF, the protein stability index amounted to 3.06.

In the case of SLGKSKVFIIRKSLLDELMEVQHF, the protein stability index worked out at 2.73.

Consider SLGKLKVFIIRKSLLDELMEVQHF, for which the protein stability index was found to be 3.31.

For SLGKKKVFIIRKSLLDELMEVQHF, the protein stability index is 2.63.

Take SLGKGKVFIIRKSLLDELMEVQHF: the protein stability index was found to be 3.96.

Turning to SLGKWKVFIIRKSLLDELMEVQHF, the protein stability index came to 2.93.

Consider SLGKPKVFIIRKSLLDELMEVQHF, for which the protein stability index was determined as 2.87.

With SLGKQKVFIIIKSLLDELMEVQHF, the protein stability index amounted to 2.78.

In the case of SLGKQKVFIIYKSLLDELMEVQHF, the protein stability index came to 3.21.

Take SLGKQKVFIIHKSLLDELMEVQHF: the protein stability index amounted to 2.43.

With SLGKQKVFIIWKSLLDELMEVQHF, the protein stability index is 2.53.

As for SLGKQKVFIIDKSLLDELMEVQHF, the protein stability index came out at 2.22.

SLGKQKVFIIKKSLLDELMEVQHF: the protein stability index is 1.77.

Turning to SLGKQKVFIIAKSLLDELMEVQHF, the protein stability index was found to be 2.83.

For the variant SLGKQKVFIIQKSLLDELMEVQHF, the protein stability index stood at 2.54.

For SLGKQQVFIIRKSLLDELMEVQHF, the protein stability index stood at 2.98.

As to SLGKQCVFIIRKSLLDELMEVQHF, the protein stability index is 3.68.

For SLGKQLVFIIRKSLLDELMEVQHF, the protein stability index was found to be 2.24.

Take SLGKQTVFIIRKSLLDELMEVQHF: the protein stability index stood at 3.25.

As for SLGKQKVFIWRKSLLDELMEVQHF, the protein stability index was determined as 1.89.

In the case of SLGKQKVFIFRKSLLDELMEVQHF, the protein stability index was found to be 3.02.

Turning to SLGKQKVFITRKSLLDELMEVQHF, the protein stability index was determined as 1.98.

SLGKQKVFIKRKSLLDELMEVQHF: the protein stability index turned out to be 1.48.

Regarding SLGKQKVFICRKSLLDELMEVQHF, the protein stability index was 2.69.

Take SLGKQKVFIPRKSLLDELMEVQHF: the protein stability index came out at 2.08.

For the variant SLGKQKVFIIRFSLLDELMEVQHF, the protein stability index was 3.49.

On to SLGKQKVFIIRNSLLDELMEVQHF, for which the protein stability index amounted to 2.32.

In the case of SLGKQKVFIIRDSLLDELMEVQHF, the protein stability index turned out to be 3.43.

As for SLGKQKVFIIRPSLLDELMEVQHF, the protein stability index worked out at 1.62.

With SLGKQKVFIIRESLLDELMEVQHF, the protein stability index was 2.99.

With SLGKQKVFIIRASLLDELMEVQHF, the protein stability index was determined as 2.44.

Turning to SLGKQKVFIIRWSLLDELMEVQHF, the protein stability index is 3.49.

For SLGKQKVFIIRQSLLDELMEVQHF, the protein stability index came to 2.96.

With SLGKQKVFHIRKSLLDELMEVQHF, the protein stability index stood at 2.22.

Consider SLGKQKVFLIRKSLLDELMEVQHF, for which the protein stability index was 1.21.

Consider SLGKQKVFCIRKSLLDELMEVQHF, for which the protein stability index was 1.76.

For the variant SLGKQKVFVIRKSLLDELMEVQHF, the protein stability index stood at 2.84.

For SLGKQKVFRIRKSLLDELMEVQHF, the protein stability index came out at 1.8.

Consider SLGKQKVFWIRKSLLDELMEVQHF, for which the protein stability index stood at 3.62.

As for SLGKQKVFEIRKSLLDELMEVQHF, the protein stability index worked out at 1.76.

Consider SLGKQKVFFIRKSLLDELMEVQHF, for which the protein stability index is 2.41.

For the variant SLGKQKVFIIRKSLLDELMEWQHF, the protein stability index is 2.46.

For SLGKQKVFIIRKSLLDELMEMQHF, the protein stability index turned out to be 1.89.

As to SLGKQKVFIIRKSLLDELMEQQHF, the protein stability index came to 4.

In the case of SLGKQKVFIIRKSLLDELMEKQHF, the protein stability index was determined as 2.08.

Take SLGKQKVFIIRKSLLDELMEYQHF: the protein stability index was determined as 2.38.

Take SLGKQKVFIIRKSLLDELMEFQHF: the protein stability index was 2.85.

As to SLGKQKVFIIRKSLLDELMETQHF, the protein stability index was 1.93.

Source of the values: the supplement of paper PMC10567573.
